Source: publication doi:10.1101/2024.10.14.618219

Target: microtubules polymerized from porcine tubulin (porcine) (UniProt Q2XVP4)
Assay: single-molecule TIRF microscopy on microtubules

Kif3A^ΔC103-Kif3B, sequence (Q9Y496 1-596, stated change not applied): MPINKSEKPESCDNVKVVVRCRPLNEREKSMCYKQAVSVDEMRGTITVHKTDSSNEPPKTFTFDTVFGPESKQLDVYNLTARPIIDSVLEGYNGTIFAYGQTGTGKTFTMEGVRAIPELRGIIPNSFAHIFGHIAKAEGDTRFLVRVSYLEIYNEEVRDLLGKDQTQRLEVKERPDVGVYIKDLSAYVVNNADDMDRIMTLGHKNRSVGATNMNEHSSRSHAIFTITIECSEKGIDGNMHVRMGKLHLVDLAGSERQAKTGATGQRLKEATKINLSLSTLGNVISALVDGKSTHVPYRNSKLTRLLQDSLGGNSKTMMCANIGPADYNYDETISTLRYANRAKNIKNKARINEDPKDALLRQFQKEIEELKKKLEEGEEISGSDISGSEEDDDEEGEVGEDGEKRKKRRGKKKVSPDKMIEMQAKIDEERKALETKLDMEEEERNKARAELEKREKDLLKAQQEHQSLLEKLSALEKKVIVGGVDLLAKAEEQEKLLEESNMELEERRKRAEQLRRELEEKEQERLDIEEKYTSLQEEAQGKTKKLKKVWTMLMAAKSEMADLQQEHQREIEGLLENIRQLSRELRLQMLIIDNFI
Kif3A^ΔC103-Kif3B, sequence (O15066 whole entry, stated change not applied): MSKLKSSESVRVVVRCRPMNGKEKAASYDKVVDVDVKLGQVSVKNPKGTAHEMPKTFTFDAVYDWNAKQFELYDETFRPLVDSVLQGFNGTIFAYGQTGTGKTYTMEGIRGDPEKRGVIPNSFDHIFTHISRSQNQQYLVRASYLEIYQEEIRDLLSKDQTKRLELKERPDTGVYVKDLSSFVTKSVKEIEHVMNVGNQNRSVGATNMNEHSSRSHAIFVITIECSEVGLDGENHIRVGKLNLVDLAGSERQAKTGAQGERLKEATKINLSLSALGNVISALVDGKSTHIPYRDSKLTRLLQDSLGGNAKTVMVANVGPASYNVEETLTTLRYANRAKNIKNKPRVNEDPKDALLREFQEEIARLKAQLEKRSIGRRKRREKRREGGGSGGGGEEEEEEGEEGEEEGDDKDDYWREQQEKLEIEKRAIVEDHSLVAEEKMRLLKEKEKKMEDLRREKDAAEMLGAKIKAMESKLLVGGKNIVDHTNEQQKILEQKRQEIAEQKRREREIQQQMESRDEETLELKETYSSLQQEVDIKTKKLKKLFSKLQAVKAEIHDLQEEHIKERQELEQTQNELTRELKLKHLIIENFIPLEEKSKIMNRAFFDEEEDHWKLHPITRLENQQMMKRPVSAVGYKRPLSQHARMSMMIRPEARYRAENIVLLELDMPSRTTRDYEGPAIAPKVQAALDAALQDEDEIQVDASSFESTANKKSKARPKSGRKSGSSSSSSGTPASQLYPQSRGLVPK
Kif3A^ΔC89-Kif3B, sequence (Q9Y496 1-610, stated change not applied): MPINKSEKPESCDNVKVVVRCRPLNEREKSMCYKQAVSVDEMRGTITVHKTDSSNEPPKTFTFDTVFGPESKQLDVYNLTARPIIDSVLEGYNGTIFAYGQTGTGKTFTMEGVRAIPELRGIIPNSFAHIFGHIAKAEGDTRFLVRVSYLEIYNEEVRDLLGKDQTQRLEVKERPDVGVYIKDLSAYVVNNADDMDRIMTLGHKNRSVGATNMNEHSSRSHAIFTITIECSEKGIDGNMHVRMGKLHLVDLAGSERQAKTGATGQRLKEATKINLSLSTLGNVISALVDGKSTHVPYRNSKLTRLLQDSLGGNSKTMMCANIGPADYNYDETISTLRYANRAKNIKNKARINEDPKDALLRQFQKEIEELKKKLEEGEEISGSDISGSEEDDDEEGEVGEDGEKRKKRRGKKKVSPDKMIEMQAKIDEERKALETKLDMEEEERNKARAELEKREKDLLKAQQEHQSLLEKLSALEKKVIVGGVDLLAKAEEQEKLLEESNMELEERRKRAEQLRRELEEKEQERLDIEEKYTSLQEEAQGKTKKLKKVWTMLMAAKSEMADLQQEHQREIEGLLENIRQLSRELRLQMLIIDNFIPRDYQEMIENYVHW
Kif3A^ΔC89-Kif3B, sequence (O15066 whole entry, stated change not applied): as the sequence (O15066 whole entry, stated change not applied) above

Row | landing rate (μm^-1 nM^-1 min^-1) | Substance
1 | 0.6 | Kif3A^ΔC103-Kif3B (from UniProt Q9Y496 1-596; O15066 1-747) (complex)
2 | 0.6 | Kif3A^ΔC89-Kif3B (from UniProt Q9Y496 1-610; O15066 1-747) (complex)
